Experimental data published in patent publication US20250019427A1.
Positions count from the first letter of the chain named.

T1: Human GDF15 Fc (human) (UniProt Q99988)
T1 sequence (chain, biotinylated (EZ-Link Sulfo-NHS-Biotinylation Kit) where printed as biotinylated): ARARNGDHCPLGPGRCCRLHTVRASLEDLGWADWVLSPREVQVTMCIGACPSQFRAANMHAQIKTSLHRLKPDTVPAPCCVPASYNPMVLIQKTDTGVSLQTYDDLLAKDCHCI

B1: Clone E Fab (Fab, V domains shown)
VH: QVQLVQSGAEVKKPGASVKVSCKASGYTFTSYGINWVRQAPGQGLEWMGWITAYSGDTNYAQKLQGRVTMTTDTSTSTAYMELRSLRSDDTAVYYCARGPGQYADVDVWGQGTMVTVSS
VL: DIQMTQSPSSVSASVGDRVTITCRASQGISSWLAWYQQKPGKAPKLLIYAASSLQSGVPSRFSGSGSGTDFTLTISSLQPEDFATYYCQQANSFPITFGGGTKVEIK
B2: Clone S Fab (Fab, V domains shown)
VH: B1 VH
VL: B1 VL with M4L, S31P
B3: Clone P Fab (Fab, V domains shown)
VH: QVQLVQSGAEVKKPGATVKVSCKASGYTFDSYGIHWVRQAPGQGLEWMGWITAYSGDTVYAQKLQGRVTMTTDTSTSTAYMELRSLRSDDTAVYYCARESGQTSSALGPWGQGTLVTVSS
VL: B1 VL with S31R, A91G, N92A, I96L
B4: Clone O Fab (Fab, V domains shown)
VH: B3 VH with Y32L, I34M, H35S, W50Y, T52S, A53T, T103Q, S104V, G108D
VL: B1 VL with S31R, A91G, N92A, I96L
B5: Clone J IgG (antibody, V domains shown)
VH: B1 VH with T52D, D57S
VL: DIQMTQSPSSVSASVGDRVTITCRASQGISSWLAWYQQKPGKAPKLLIYAASSLQSGVPSRFSGSGSGTDFTLTISSLQPEDFATYYCQQANSFPITFGGGTKVEIKR
B6: Clone E IgG (antibody, V domains shown)
VH: B1 VH
VL: B5 VL
B7: Clone T Fab (Fab, V domains shown)
VH: B1 VH
VL: B1 VL with N92S, S93Q
B8: Clone I Fab (Fab, V domains shown)
VH: B1 VH with S31D, Y32E, N59V
VL: B1 VL
B9: Clone I IgG (antibody, V domains shown)
VH: B1 VH with S31D, Y32E, N59V
VL: B5 VL
B10: Clone L Fab (Fab, V domains shown)
VH: QVQLVQSGAEVKKPGASVKVSCKASGYTFASYDIIWVRQAPGQGLEWMGWISALSGDTVYAQKLQGRVTMTTDTSTSTAYMELRSLRSDDTAVYYCARTRHDTSGIRFDYWGQGTLVTVSS
VL: B1 VL with S30D, A91V, N92H
B11: Clone K Fab (Fab, V domains shown)
VH: B10 VH with A30T, S31N, Y32E, D33G, I35S, L54Y, S55T, G56A, V59F, I106L
VL: B1 VL with S30D, A91V, N92H
B12: Clone J Fab (Fab, V domains shown)
VH: B1 VH with T52D, D57S
VL: B1 VL
B13: Clone K IgG (antibody, V domains shown)
VH: B10 VH with A30T, S31N, Y32E, D33G, I35S, L54Y, S55T, G56A, V59F, I106L
VL: B5 VL with S30D, A91V, N92H
B14: Clone P IgG (antibody, V domains shown)
VH: B3 VH
VL: B5 VL with S31R, A91G, N92A, I96L
B15: Clone O IgG (antibody, V domains shown)
VH: B3 VH with Y32L, I34M, H35S, W50Y, T52S, A53T, T103Q, S104V, G108D
VL: B5 VL with S31R, A91G, N92A, I96L
B16: Clone L IgG (antibody, V domains shown)
VH: B10 VH
VL: B5 VL with S30D, A91V, N92H

Experiments:
[1] = target: T1, Human GDF15 Fc (human); assay: Octet BLI, Fab monovalent
[2] = target: T1, Human GDF15 Fc (human); assay: SPR Biacore, Fab monovalent
[3] = target: T1, Human GDF15 Fc (human); assay: Octet BLI, IgG on tip, avid

Kd [1] [nM] | Kd [2] [nM] | koff [2] [s⁻¹] | kon [2] [M⁻¹ s⁻¹] | Kd [3] [nM] | Binder
0.921 | 0.0331 | 8.71e-05 | 2.63e+06 |  | B1
0.48 | 0.0369 | 4.93e-05 | 1.34e+06 |  | B2
3.68 | 0.126 | 0.0021 | 1.66e+07 |  | B3
0.216 | 0.0341 | 7.11e-05 | 2.08e+06 |  | B4
 |  |  |  | 0.276 | B5
 |  |  |  | 0.278 | B6
0.613 | 0.0411 | 4.52e-05 | 1.1e+06 |  | B7
1.25 | 0.0672 | 0.000259 | 3.85e+06 |  | B8
 |  |  |  | 0.262 | B9
1.58 | 0.144 | 0.000576 | 3.99e+06 |  | B10
2.11 | 0.23 | 0.00112 | 4.87e+06 |  | B11
1.28 | 0.0884 | 0.000404 | 4.57e+06 |  | B12
 |  |  |  | 0.271 | B13
 |  |  |  | 0.274 | B14
 |  |  |  | 0.379 | B15
 |  |  |  | 0.325 | B16
